The target in assay [1] is GFP only (eGFP expressed from the pcDNA3.1(+)-N-eGFP backbone without gene insertion). As to the kind of experiment: single-molecule pull-down (SiMPull) with GFP photobleaching step counting; diluted NP40 lysate (1:100-1:10,000 in T50: 10 mM Tris-Cl pH 8.0, 50 mM NaCl) of transfected SH-SY5Y cells flowed over a PEG/neutravidin surface with biotinylated anti-GFP antibody; 488 nm TIRF, room temperature; photobleaching steps counted per spot; 30% dimers subtracted for GFP self-dimerisation; cells without or with 0.4 M sorbitol 4 h (also arsenite) before lysis.

Assay [2] concerns the target T1, Fused in sarcoma (FUS) wildtype with N-terminal GFP tag, P35637.
T1 chain: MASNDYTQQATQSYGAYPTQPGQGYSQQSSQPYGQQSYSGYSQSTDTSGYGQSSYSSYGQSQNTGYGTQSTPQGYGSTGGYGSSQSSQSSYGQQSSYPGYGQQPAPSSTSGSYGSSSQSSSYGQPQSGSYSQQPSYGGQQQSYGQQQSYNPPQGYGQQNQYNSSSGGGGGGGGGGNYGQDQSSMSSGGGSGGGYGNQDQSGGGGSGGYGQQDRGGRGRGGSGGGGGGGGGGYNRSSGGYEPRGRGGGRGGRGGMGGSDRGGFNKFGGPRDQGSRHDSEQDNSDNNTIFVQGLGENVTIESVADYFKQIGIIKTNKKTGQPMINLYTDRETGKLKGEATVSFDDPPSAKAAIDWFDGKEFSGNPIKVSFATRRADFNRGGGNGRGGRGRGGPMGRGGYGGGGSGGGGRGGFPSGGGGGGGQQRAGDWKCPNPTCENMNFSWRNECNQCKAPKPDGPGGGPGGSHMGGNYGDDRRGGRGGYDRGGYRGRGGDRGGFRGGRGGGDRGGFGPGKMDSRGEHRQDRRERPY
As to the kind of experiment: single-molecule pull-down (SiMPull) with GFP photobleaching step counting; diluted NP40 lysate (1:100-1:10,000 in T50: 10 mM Tris-Cl pH 8.0, 50 mM NaCl) of transfected SH-SY5Y cells flowed over a PEG/neutravidin surface with biotinylated anti-GFP antibody; 488 nm TIRF, room temperature; photobleaching steps counted per spot; 30% dimers subtracted for GFP self-dimerisation; cells without or with 0.4 M sorbitol 4 h …. Particulars: remark: other sources report otherwise.

On to “GFP only (eGFP expressed from the pcDNA3.1(+)-N-eGFP backbone without gene insertion)”, for which, in assay [1], the percent dimers stood at 30% and the percent monomers was found to be 70%.

B1: Fused in sarcoma (FUS) wildtype with N-terminal GFP tag, P35637 1-526 (natural protein)
chain: T1 chain
As to B1, in assay [2], the average photobleaching step (after subtracting the GFP self-dimer fraction) stood at 1.5 steps and the increase in average photobleaching steps with sorbitol stress was 0.5 steps.

For the origin of these results see paper PMC10139993.
